Results reported in paper PMC6468243, “Mechanistic characterization of the DEAD-box RNA helicase Ded1 from yeast as revealed by a novel technique using single-molecule magnetic tweezers”.

Molecular target: Ded1-His6 (Saccharomyces cerevisiae? (paper says …, UniProt P06634 1-604))
Test: competition (magnetic tweezers displacement assay); 1 mM ATP; 10 nM Ded1; against 200 nM 5'ss-11 bp RNA; effective competitor; Magnetic tweezers, Fhold 7 pN, 10 nM Ded1, 1 mM ATP, 200 nM 5'ss-11 bp RNA; buffer, salt, pH and temperature not in the material. Table 1 and Figures 4-6 (duplex displacement/unwinding kinetics) left out as enzyme activity without a direct binding read-out
Conditions: protein: recombinant; tags: His6 (pET22b); single strand

Chain of Ded1-His6 (Saccharomyces cerevisiae? (P06634 whole entry): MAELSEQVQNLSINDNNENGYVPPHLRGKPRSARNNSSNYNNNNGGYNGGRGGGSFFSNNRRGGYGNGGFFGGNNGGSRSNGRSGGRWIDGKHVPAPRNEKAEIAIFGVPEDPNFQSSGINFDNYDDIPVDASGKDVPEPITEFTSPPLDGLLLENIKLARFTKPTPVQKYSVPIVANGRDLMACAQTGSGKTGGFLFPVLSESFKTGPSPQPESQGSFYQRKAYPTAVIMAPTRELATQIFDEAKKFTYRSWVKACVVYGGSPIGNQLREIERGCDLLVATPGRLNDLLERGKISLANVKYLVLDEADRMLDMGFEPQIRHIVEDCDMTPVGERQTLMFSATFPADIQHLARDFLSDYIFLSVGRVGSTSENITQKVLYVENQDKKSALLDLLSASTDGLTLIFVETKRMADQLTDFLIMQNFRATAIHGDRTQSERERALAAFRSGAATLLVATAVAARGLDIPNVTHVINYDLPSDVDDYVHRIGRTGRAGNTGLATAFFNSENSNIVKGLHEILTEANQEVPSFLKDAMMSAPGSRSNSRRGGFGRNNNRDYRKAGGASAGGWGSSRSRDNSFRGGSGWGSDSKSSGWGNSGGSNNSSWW

Binder: UCAUACUUUUCUUUUCUUUUCCAUC (ssRNA) [ssRNA01 (RNA01)]
- binding result: binds
